{"source": "patent US20210275686A1", "about": "“BINDER/ACTIVE AGENT CONJUGATES DIRECTED AGAINST CXCR5, HAVING ENZYMATICALLY CLEAVABLE LINKERS AND IMPROVED ACTIVITY PROFILE” (BAYER AKTIENGESELLSCHAFT, priority 2018, published 2021)", "data": [{"test_system": "Rec-1: human mantle cell lymphoma cells", "experiment": "Cytotoxic activity, MTT assay, Rec-1", "format": "cell-based", "conditions": "Rec1, metabolites, 96 h", "experimental": "(§1) The culturing of the cells is performed according to the standard method, as specified at the American Tissue Culture Collection (ATCC) or the Leibniz-Institut DSMZ-Deutsche Sammlung von Mikroorganismen and Zellkulturen GmbH (DSMZ) for the respective cell lines.\nThe culturing of the cells was performed according to the standard method with the growth media specified under C-1. For execution, the cells were separated with a solution of Accutase in PBS (Biochrom AG #L2143), pelleted, resuspended in culture medium, counted and seeded on a 96-well culture plate with a white background (Costar #3610) (NCI H292: 2500 cells/well; in 100 μL total volume). Then the cells were incubated in an incubator at 37° C. and 5% carbon dioxide. After 48 h a change of medium was performed. […] The cells in the suspension were counted and seeded into a 96-well culture plate with white background (Costar #3610) (#3610) (Rec-1: 3000 cells/well at a total volume of 100 μL). […] After 96 h the cell proliferation was detected using the MTT assay (ATCC, Manassas, Va., USA, Catalog No. 30-1010K). […] The color formed was detected at 570 nm (Infinite M1000 pro, Tecan). Based on the measured data the IC50 of the growth inhibition was calculated using the DRC (dose-response curve). […]", "units": {"IC50": "nM"}, "values": [{"molecule": "CC(C)(C)[C@H](c1cc(-c2cc(F)ccc2F)cn1Cc1ccccc1)N(CC[C@H](N)C(=O)NCCC(=O)N[C@H](CCC(=O)O)C(=O)O)C(=O)CO", "note": "[Example M1, N-{(2S)-2-Amino-4-[{(1R)-1-[1-benzyl-4-(2,5-difluorophenyl)-1H-pyrrol-2-yl]-2,2-dimethylpropyl}(glycoloyl)amino]butanoyl}-beta-alanyl-D-glutamic acid]", "IC50": 387}]}, {"biological_target": "T1, CXCR5 (CD185; SwissProt: P32302; NCBI reference sequence: NP_001707.1) (human, UniProt P32302 1-372)", "T1 sequence": "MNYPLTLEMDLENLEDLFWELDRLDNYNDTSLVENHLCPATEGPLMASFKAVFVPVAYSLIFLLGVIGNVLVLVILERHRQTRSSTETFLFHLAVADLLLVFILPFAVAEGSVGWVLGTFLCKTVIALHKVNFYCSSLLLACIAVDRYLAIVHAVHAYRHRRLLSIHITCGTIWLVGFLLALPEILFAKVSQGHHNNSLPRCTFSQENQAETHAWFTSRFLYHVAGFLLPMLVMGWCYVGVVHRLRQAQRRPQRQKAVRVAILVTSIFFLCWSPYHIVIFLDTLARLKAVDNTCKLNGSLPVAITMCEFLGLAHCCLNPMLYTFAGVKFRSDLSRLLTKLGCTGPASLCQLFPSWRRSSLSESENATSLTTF", "experiment": "cell-based or functional assay", "conditions": "not given", "units": {"Internalization Rec-1 [MFI]": "MFI", "Internalization SU-DHL-6 [MFI]": "MFI"}, "values": [{"molecule": "TPP-14495 (antibody, human IgG1, lambda, V domains shown, CypHer 5E fluorescent dye coupled to lysine residues (positions not stated)) VH: EVQLLESGGGLVQPGGSLRLSCAASGFTFSNYWMSWVRQAPGKGLEWVSAISGSGGSTRYADSVKGRFTISRDNSKNTLYLQMNSLRAEDTAVYYCTTQRRELGATNWGQGTLVTVSS VL: QSVLTQPPSASGTPGQRVTISCTGSSSNIGAGYVVHWYQQLPGTAPKLLIYSNNQRPSGVPDRFSGSKSGTSASLAISGLRSEDEADYYCQSYDSSLSGVVFGGGTKLTVLG", "Internalization Rec-1 [MFI]": 84, "Internalization SU-DHL-6 [MFI]": 12}, {"molecule": "TPP-14511 (antibody, human IgG1, lambda, V domains shown, CypHer 5E fluorescent dye coupled to lysine residues (positions not stated)) VH: EVQLLESGGGLVQPGGSLRLSCAASGFTFSNYWMSWVRQAPGKGLEWVSAISGSGGTTYYADSVKGRFTISRDNSKNTLYLQMNSLRAEDTAVYYCTTQRRELGATNWGQGTLVTVSS VL: QSVLTQPPSASGTPGQRVTISCTGSSSNIGAGYVVHWYQQLPGTAPKLLIYSNNQRPSGVPDRFSGSKSGTSASLAISGLRSEDEADYYCQSYDSSLSGVVFGGGTKLTVLG", "Internalization Rec-1 [MFI]": 99, "Internalization SU-DHL-6 [MFI]": 24}, {"molecule": "TPP-14514 (antibody, human IgG1, lambda, V domains shown, CypHer 5E fluorescent dye coupled to lysine residues (positions not stated)) VH: EVQLLESGGGLVQPGGSLRLSCAASGFTFSNNWMSWVRQAPGKGLEWVSAISGSGGSTYYADSVKGRFTISRDNSKNTLYLQMNSLRAEDTAVYYCTVQRRELGATNWGQGTLVTVSS VL: QSVLTQPPSASGTPGQRVTISCTGSSSNIGAGYVVHWYQQLPGTAPKLLIYSNNQRPSGVPDRFSGSKSGTSASLAISGLRSEDEADYYCQSYDSSLSGVVFGGGTKLTVLG", "Internalization Rec-1 [MFI]": 134, "Internalization SU-DHL-6 [MFI]": 53}, {"molecule": "TPP-10063 (antibody, human IgG1, lambda, V domains shown, CypHer 5E fluorescent dye coupled to lysine residues (positions not stated)) VH: EVQLLESGGGLVQPGGSLRLSCAASGFTFSNYWMSWVRQAPGKGLEWVSAISGSGGSTYYADSVKGRFTISRDNSKNTLYLQMNSLRAEDTAVYYCTTLRRELGATNWGQGTLVTVSS VL: QSVLTQPPSASGTPGQRVTISCTGSSSNIGAGYVVHWYQQLPGTAPKLLIYSNNQRPSGVPDRFSGSKSGTSASLAISGLRSEDEADYYCQSYDSSLSGVVFGGGTKLTVLG", "Internalization Rec-1 [MFI]": 65, "Internalization SU-DHL-6 [MFI]": 22}, {"molecule": "40C01 (antibody, human IgG1, kappa, V domains shown, CypHer 5E fluorescent dye coupled to lysine residues (positions not stated)) VH: EVQLLESGGGLVQPGGSLRLSCAASGFTFSRYVMVWVRQAPGKGLEWVSGISPSGGVTRYAASVKGRFTISRDNSKNTLYLQMNSLRAEDTAVYYCARIRKEMTTISYFFDYWGQGTLVTVSS VL: DIQMTQSPSSLSASVGDRVTITCRASQGVDAYVAWYQQKPGKVPKLLIYSTSTLASGVPSRFSGSGSGTDFTLTISSLQPEDVATYYCQSHNAAVVTFGQGTRLEIKR", "Internalization Rec-1 [MFI]": 49, "Internalization SU-DHL-6 [MFI]": 13}, {"molecule": "TPP-14499 (antibody, human IgG1, lambda, V domains shown, CypHer 5E fluorescent dye coupled to lysine residues (positions not stated)) VH: EVQLLESGGGLVQPGGSLRLSCAASGFTFSNYWGSWVRQAPGKGLEWVSAISGSGGSTYYADSVKGRFTISRDNSKNTLYLQMNSLRAEDTAVYYCTVLRRELGATNWGQGTLVTVSS VL: QSVLTQPPSASGTPGQRVTISCTGSSSNIGAGYVVHWYQQLPGTAPKLLIYSNNQRPSGVPDRFSGSKSGTSASLAISGLRSEDEADYYCQSYDSSLSGVVFGGGTKLTVLG", "Internalization Rec-1 [MFI]": 122, "Internalization SU-DHL-6 [MFI]": 55}, {"molecule": "TPP-14505 (antibody, human IgG1, lambda, V domains shown, CypHer 5E fluorescent dye coupled to lysine residues (positions not stated)) VH: EVQLLESGGGLVQPGGSLRLSCAASGFTFSNNWMSWVRQAPGKGLEWVSAISGSGGSTYYADSVKGRFTISRDNSKNTLYLQMNSLRAEDTAVYYCNVQRRELGATNWGQGTLVTVSS VL: QSVLTQPPSASGTPGQRVTISCTGSSSNIGAGYVVHWYQQLPGTAPKLLIYSNNQRPSGVPDRFSGSKSGTSASLAISGLRSEDEADYYCQSYDSSLSGVVFGGGTKLTVLG", "Internalization Rec-1 [MFI]": 135, "Internalization SU-DHL-6 [MFI]": 61}, {"molecule": "TPP-14509 (antibody, human IgG1, lambda, V domains shown, CypHer 5E fluorescent dye coupled to lysine residues (positions not stated)) VH: EVQLLESGGGLVQPGGSLRLSCAASGFTFSNYWMSWVRQAPGKGLEWVSAISGSGGSTYYADSVKGRFTISRDNSKNTLYLQMNSLRAEDTAVYYCTVQRRELGATNWGQGTLVTVSS VL: QSVLTQPPSASGTPGQRVTISCTGSSSNIGAGYVVHWYQQLPGTAPKLLIYSNNQRPSGVPDRFSGSKSGTSASLAISGLRSEDEADYYCQSYDSSLSGVVFGGGTKLTVLG", "Internalization Rec-1 [MFI]": 129, "Internalization SU-DHL-6 [MFI]": 51}]}, {"test_system": "Rec-1: human mantle cell lymphoma cells", "experiment": "Cytotoxic activity, CTG assay, Rec-1", "format": "cell-based", "conditions": "Rec1, metabolites", "experimental": "as §1\nThe cells were cultured using the standard method, with the growth media specified under C-1. To perform the test, the suspended cells were counted and seeded in a 96-well culture plate with a white background (Perkin Elmer, NO 10775584) (at 75 μL/well; the resulting cell numbers per well are: Rec-1: 3000 cells/well, HBL-1 and Oci-Ly-1: 6000 cells/well) and incubated in an incubator at 37° C. and 5% carbon dioxide. […] In a parallel plate, the cell vitality was determined at the beginning of the active agent treatment (day 0) with the Cell Titer Glow (CTG) Luminescent Cell Viability Assay (Promega #G7573 and #G7571). For this purpose, 100 μL of the substrate were added per cell batch; then the plates were covered with aluminum foil, shaken for 2 minutes at 180 rpm with the plate shaker, allowed to stand for 8 minutes on the laboratory bench and then measured with a luminometer (Victor X2, Perkin Elmer). The substrate detected the ATP content in the living cells, generating a luminescence signal whose height is directly proportional to the vitality of the cells. […]", "units": {"IC50": "nM"}, "values": [{"molecule": "CC(C)(C)[C@H](c1cc(-c2cc(F)ccc2F)cn1Cc1ccccc1)N(CC[C@H](N)C(=O)NCCC(=O)N[C@H](CCC(=O)O)C(=O)O)C(=O)CO", "note": "[Example M1, N-{(2S)-2-Amino-4-[{(1R)-1-[1-benzyl-4-(2,5-difluorophenyl)-1H-pyrrol-2-yl]-2,2-dimethylpropyl}(glycoloyl)amino]butanoyl}-beta-alanyl-D-glutamic acid]", "IC50": 309}]}, {"biological_target": "CXCR5 (CD185; SwissProt: P32302; NCBI reference sequence: NP_001707.1) (human) (UniProt P32302)", "experiment": "cell-based or functional assay", "conditions": "not given", "units": {"Internalization Rec-1 [MFI]": "MFI", "Internalization SU-DHL-6 [MFI]": "MFI"}, "values": [{"molecule": "Isotype control (antibody)", "Internalization Rec-1 [MFI]": 2, "Internalization SU-DHL-6 [MFI]": 1}]}, {"biological_target": "T2, legumain (Homo sapiens, UniProt Q99538)", "T2 construct": "purchased R&D Systems 2199-CY", "T2 sequence (Q99538 26-323 limits assumed)": "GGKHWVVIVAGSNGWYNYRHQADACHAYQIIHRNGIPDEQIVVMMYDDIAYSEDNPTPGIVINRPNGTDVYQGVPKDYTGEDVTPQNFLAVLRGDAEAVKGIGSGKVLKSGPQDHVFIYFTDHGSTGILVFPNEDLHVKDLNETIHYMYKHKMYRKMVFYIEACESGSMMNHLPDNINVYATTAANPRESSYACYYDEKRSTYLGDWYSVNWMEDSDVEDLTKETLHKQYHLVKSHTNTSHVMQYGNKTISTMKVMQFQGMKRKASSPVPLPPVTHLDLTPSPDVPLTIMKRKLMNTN", "experiment": "Legumain assay", "format": "biochemical", "conditions": "recombinant human legumain (rhlegumain), 3 μM substrate, pH 5.0, read-out: half-life of legumain-mediated cleavage (converted)", "experimental": "The legumain assay was performed with recombinant human enzyme. The rhlegumain enzyme solution (Catalog #2199-CY, R&D Systems) was diluted to the desired concentration in 50 mM Na acetate buffer/100 mM NaCl, pH4.0, and preincubated for 2 h at 37° C. The rhlegumain was then adjusted to a final concentration of […] in 50 mM MES buffer, 250 mM NaCl, pH 5.0. For each legumain-cleavable prodrug to be investigated, a reaction mixture was made up in a micro-reaction vessel (0.5 ml, Eppendorf). For this, the substrate solution was adjusted with 50 mM MES buffer, 250 mM NaCl, pH 5.0 to the desired concentration (2-fold concentration). For the kinetic measurement of the enzymatic reaction, first 250 μL of the legumain solution was taken and the enzymatic reaction was started by adding 250 μL of the substrate solution (final concentration, single concentration; 3 μM). Samples of 50 μL each were taken at various times. Immediately, 100 μL ice-cold methanol was added to the sample to stop the enzymatic reaction and then frozen at −20° C. The selected sampling times were after 0.5 h, 1 h, 3 h and 24 h. The samples were then examined by RP-HPLC analysis and by LC-MS. The determination of the toxophore released enabled the determination of the half-time t1/2 of the enzymatic reaction.", "units": {"half-life at 3 µM": "min"}, "values": [{"molecule": "CNC(=O)[C@H](CCN(C(=O)CO)[C@@H](c1cc(-c2cc(F)ccc2F)cn1Cc1ccccc1)C(C)(C)C)NC(=O)[C@H](CC(N)=O)NC(=O)[C@H](C)N(C)C(=O)[C@H](C)NC(=O)Cc1ccncc1", "note": "[Model Compound A]", "half-life at 3 µM": 30}]}]}
